Results: patent US20110118131A1 (published 2011)

Biological target: T1, Ep-CAM (UniProt P16422 24-265, limits assumed)
T1 construct: Antigen of the Biacore analysis of ING-1 variants
T1 sequence (looked up): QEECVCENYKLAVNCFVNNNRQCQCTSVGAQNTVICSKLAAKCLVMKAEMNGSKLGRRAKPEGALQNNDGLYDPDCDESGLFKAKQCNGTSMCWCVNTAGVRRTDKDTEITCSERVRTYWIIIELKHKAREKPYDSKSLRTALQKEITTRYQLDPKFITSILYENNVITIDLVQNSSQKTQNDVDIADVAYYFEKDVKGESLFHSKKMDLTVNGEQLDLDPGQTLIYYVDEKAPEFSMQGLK
Test: Biacore, Fab periplasmic extract

Binder | binding result | fold difference in affinity vs original [fold]
ING-1 heavy chain T53D (Fab, V domains shown) VH: QIQLVQSGPELKKPGETVKISCKASGYTFTKYGMNWVKQAPGKGLKWMGWINDYTEEPTYGDDFKGRFAFSLETSASTANLQINNLKSEDTATYFCARFGSAVDYWGQGTSVTVSS VL: DIVMTQAAFSNPVTLGTSGSISCRSSKSLLHSNGITYLYWYLQKPGQSPQLLIYQMSNLASGVPDRFSSSGSGTDFTLRISRVEAEDVGVYYCAQNLELPRTFGGGTKLEMKR | no binding | 
ING-1 heavy chain T53E (Fab, V domains shown) VH: QIQLVQSGPELKKPGETVKISCKASGYTFTKYGMNWVKQAPGKGLKWMGWINEYTEEPTYGDDFKGRFAFSLETSASTANLQINNLKSEDTATYFCARFGSAVDYWGQGTSVTVSS VL: DIVMTQAAFSNPVTLGTSGSISCRSSKSLLHSNGITYLYWYLQKPGQSPQLLIYQMSNLASGVPDRFSSSGSGTDFTLRISRVEAEDVGVYYCAQNLELPRTFGGGTKLEMKR | no binding | 
ING-1 heavy chain T53F (Fab, V domains shown) VH: QIQLVQSGPELKKPGETVKISCKASGYTFTKYGMNWVKQAPGKGLKWMGWINFYTEEPTYGDDFKGRFAFSLETSASTANLQINNLKSEDTATYFCARFGSAVDYWGQGTSVTVSS VL: DIVMTQAAFSNPVTLGTSGSISCRSSKSLLHSNGITYLYWYLQKPGQSPQLLIYQMSNLASGVPDRFSSSGSGTDFTLRISRVEAEDVGVYYCAQNLELPRTFGGGTKLEMKR | no binding | 
ING-1 heavy chain T53H (Fab, V domains shown) VH: QIQLVQSGPELKKPGETVKISCKASGYTFTKYGMNWVKQAPGKGLKWMGWINHYTEEPTYGDDFKGRFAFSLETSASTANLQINNLKSEDTATYFCARFGSAVDYWGQGTSVTVSS VL: DIVMTQAAFSNPVTLGTSGSISCRSSKSLLHSNGITYLYWYLQKPGQSPQLLIYQMSNLASGVPDRFSSSGSGTDFTLRISRVEAEDVGVYYCAQNLELPRTFGGGTKLEMKR | no binding | 
ING-1 heavy chain T53N (Fab, V domains shown) VH: QIQLVQSGPELKKPGETVKISCKASGYTFTKYGMNWVKQAPGKGLKWMGWINNYTEEPTYGDDFKGRFAFSLETSASTANLQINNLKSEDTATYFCARFGSAVDYWGQGTSVTVSS VL: DIVMTQAAFSNPVTLGTSGSISCRSSKSLLHSNGITYLYWYLQKPGQSPQLLIYQMSNLASGVPDRFSSSGSGTDFTLRISRVEAEDVGVYYCAQNLELPRTFGGGTKLEMKR | no binding | 
ING-1 heavy chain T53Q (Fab, V domains shown) VH: QIQLVQSGPELKKPGETVKISCKASGYTFTKYGMNWVKQAPGKGLKWMGWINQYTEEPTYGDDFKGRFAFSLETSASTANLQINNLKSEDTATYFCARFGSAVDYWGQGTSVTVSS VL: DIVMTQAAFSNPVTLGTSGSISCRSSKSLLHSNGITYLYWYLQKPGQSPQLLIYQMSNLASGVPDRFSSSGSGTDFTLRISRVEAEDVGVYYCAQNLELPRTFGGGTKLEMKR | no binding | 
ING-1 heavy chain T53R (Fab, V domains shown) VH: QIQLVQSGPELKKPGETVKISCKASGYTFTKYGMNWVKQAPGKGLKWMGWINRYTEEPTYGDDFKGRFAFSLETSASTANLQINNLKSEDTATYFCARFGSAVDYWGQGTSVTVSS VL: DIVMTQAAFSNPVTLGTSGSISCRSSKSLLHSNGITYLYWYLQKPGQSPQLLIYQMSNLASGVPDRFSSSGSGTDFTLRISRVEAEDVGVYYCAQNLELPRTFGGGTKLEMKR | no binding | 
ING-1 heavy chain T53W (Fab, V domains shown) VH: QIQLVQSGPELKKPGETVKISCKASGYTFTKYGMNWVKQAPGKGLKWMGWINWYTEEPTYGDDFKGRFAFSLETSASTANLQINNLKSEDTATYFCARFGSAVDYWGQGTSVTVSS VL: DIVMTQAAFSNPVTLGTSGSISCRSSKSLLHSNGITYLYWYLQKPGQSPQLLIYQMSNLASGVPDRFSSSGSGTDFTLRISRVEAEDVGVYYCAQNLELPRTFGGGTKLEMKR | no binding | 
ING-1 heavy chain T53Y (Fab, V domains shown) VH: QIQLVQSGPELKKPGETVKISCKASGYTFTKYGMNWVKQAPGKGLKWMGWINYYTEEPTYGDDFKGRFAFSLETSASTANLQINNLKSEDTATYFCARFGSAVDYWGQGTSVTVSS VL: DIVMTQAAFSNPVTLGTSGSISCRSSKSLLHSNGITYLYWYLQKPGQSPQLLIYQMSNLASGVPDRFSSSGSGTDFTLRISRVEAEDVGVYYCAQNLELPRTFGGGTKLEMKR | no binding | 
ING-1 heavy chain T55D (Fab, V domains shown) VH: QIQLVQSGPELKKPGETVKISCKASGYTFTKYGMNWVKQAPGKGLKWMGWINTYDEEPTYGDDFKGRFAFSLETSASTANLQINNLKSEDTATYFCARFGSAVDYWGQGTSVTVSS VL: DIVMTQAAFSNPVTLGTSGSISCRSSKSLLHSNGITYLYWYLQKPGQSPQLLIYQMSNLASGVPDRFSSSGSGTDFTLRISRVEAEDVGVYYCAQNLELPRTFGGGTKLEMKR |  | 0.03
ING-1 heavy chain T55E (Fab, V domains shown) VH: QIQLVQSGPELKKPGETVKISCKASGYTFTKYGMNWVKQAPGKGLKWMGWINTYEEEPTYGDDFKGRFAFSLETSASTANLQINNLKSEDTATYFCARFGSAVDYWGQGTSVTVSS VL: DIVMTQAAFSNPVTLGTSGSISCRSSKSLLHSNGITYLYWYLQKPGQSPQLLIYQMSNLASGVPDRFSSSGSGTDFTLRISRVEAEDVGVYYCAQNLELPRTFGGGTKLEMKR | no binding | 
ING-1 heavy chain T55F (Fab, V domains shown) VH: QIQLVQSGPELKKPGETVKISCKASGYTFTKYGMNWVKQAPGKGLKWMGWINTYFEEPTYGDDFKGRFAFSLETSASTANLQINNLKSEDTATYFCARFGSAVDYWGQGTSVTVSS VL: DIVMTQAAFSNPVTLGTSGSISCRSSKSLLHSNGITYLYWYLQKPGQSPQLLIYQMSNLASGVPDRFSSSGSGTDFTLRISRVEAEDVGVYYCAQNLELPRTFGGGTKLEMKR |  | 0.03
ING-1 heavy chain T55H (Fab, V domains shown) VH: QIQLVQSGPELKKPGETVKISCKASGYTFTKYGMNWVKQAPGKGLKWMGWINTYHEEPTYGDDFKGRFAFSLETSASTANLQINNLKSEDTATYFCARFGSAVDYWGQGTSVTVSS VL: DIVMTQAAFSNPVTLGTSGSISCRSSKSLLHSNGITYLYWYLQKPGQSPQLLIYQMSNLASGVPDRFSSSGSGTDFTLRISRVEAEDVGVYYCAQNLELPRTFGGGTKLEMKR |  | 0.05
ING-1 heavy chain T55Q (Fab, V domains shown) VH: QIQLVQSGPELKKPGETVKISCKASGYTFTKYGMNWVKQAPGKGLKWMGWINTYQEEPTYGDDFKGRFAFSLETSASTANLQINNLKSEDTATYFCARFGSAVDYWGQGTSVTVSS VL: DIVMTQAAFSNPVTLGTSGSISCRSSKSLLHSNGITYLYWYLQKPGQSPQLLIYQMSNLASGVPDRFSSSGSGTDFTLRISRVEAEDVGVYYCAQNLELPRTFGGGTKLEMKR |  | 0.03
ING-1 heavy chain T55W (Fab, V domains shown) VH: QIQLVQSGPELKKPGETVKISCKASGYTFTKYGMNWVKQAPGKGLKWMGWINTYWEEPTYGDDFKGRFAFSLETSASTANLQINNLKSEDTATYFCARFGSAVDYWGQGTSVTVSS VL: DIVMTQAAFSNPVTLGTSGSISCRSSKSLLHSNGITYLYWYLQKPGQSPQLLIYQMSNLASGVPDRFSSSGSGTDFTLRISRVEAEDVGVYYCAQNLELPRTFGGGTKLEMKR |  | 0.1
ING-1 heavy chain T55Y (Fab, V domains shown) VH: QIQLVQSGPELKKPGETVKISCKASGYTFTKYGMNWVKQAPGKGLKWMGWINTYYEEPTYGDDFKGRFAFSLETSASTANLQINNLKSEDTATYFCARFGSAVDYWGQGTSVTVSS VL: DIVMTQAAFSNPVTLGTSGSISCRSSKSLLHSNGITYLYWYLQKPGQSPQLLIYQMSNLASGVPDRFSSSGSGTDFTLRISRVEAEDVGVYYCAQNLELPRTFGGGTKLEMKR |  | 0.03
ING-1 heavy chain T59H (Fab, V domains shown) VH: QIQLVQSGPELKKPGETVKISCKASGYTFTKYGMNWVKQAPGKGLKWMGWINTYTEEPHYGDDFKGRFAFSLETSASTANLQINNLKSEDTATYFCARFGSAVDYWGQGTSVTVSS VL: DIVMTQAAFSNPVTLGTSGSISCRSSKSLLHSNGITYLYWYLQKPGQSPQLLIYQMSNLASGVPDRFSSSGSGTDFTLRISRVEAEDVGVYYCAQNLELPRTFGGGTKLEMKR |  | 0.4
ING-1 heavy chain T59Q (Fab, V domains shown) VH: QIQLVQSGPELKKPGETVKISCKASGYTFTKYGMNWVKQAPGKGLKWMGWINTYTEEPQYGDDFKGRFAFSLETSASTANLQINNLKSEDTATYFCARFGSAVDYWGQGTSVTVSS VL: DIVMTQAAFSNPVTLGTSGSISCRSSKSLLHSNGITYLYWYLQKPGQSPQLLIYQMSNLASGVPDRFSSSGSGTDFTLRISRVEAEDVGVYYCAQNLELPRTFGGGTKLEMKR | no binding | 
ING-1 heavy chain W50E (Fab, V domains shown) VH: QIQLVQSGPELKKPGETVKISCKASGYTFTKYGMNWVKQAPGKGLKWMGEINTYTEEPTYGDDFKGRFAFSLETSASTANLQINNLKSEDTATYFCARFGSAVDYWGQGTSVTVSS VL: DIVMTQAAFSNPVTLGTSGSISCRSSKSLLHSNGITYLYWYLQKPGQSPQLLIYQMSNLASGVPDRFSSSGSGTDFTLRISRVEAEDVGVYYCAQNLELPRTFGGGTKLEMKR | no binding | 
ING-1 heavy chain W50F (Fab, V domains shown) VH: QIQLVQSGPELKKPGETVKISCKASGYTFTKYGMNWVKQAPGKGLKWMGFINTYTEEPTYGDDFKGRFAFSLETSASTANLQINNLKSEDTATYFCARFGSAVDYWGQGTSVTVSS VL: DIVMTQAAFSNPVTLGTSGSISCRSSKSLLHSNGITYLYWYLQKPGQSPQLLIYQMSNLASGVPDRFSSSGSGTDFTLRISRVEAEDVGVYYCAQNLELPRTFGGGTKLEMKR |  | 0.09
